Data taken from paper PMC9597381, “Molecular determinants of TRAF6 binding specificity suggest that native interaction partners are not optimized for affinity” (Protein Science : A Publication of the Protein Society, 2022).
Where “and” joins values, the source holds several entries; their conditions need not be identical. Equal entries are not always repeated.

T1: monomeric TRAF6 (T6m), TRAF6 MATH domain (Homo sapiens, UniProt Q9Y4K3)
T1 construct: (human TRAF6 residues 350-501) – LE – HHHHHH; made in house; host or cells: E. coli Rosetta2(DE3)
T1 sequence (Q9Y4K3 350-501): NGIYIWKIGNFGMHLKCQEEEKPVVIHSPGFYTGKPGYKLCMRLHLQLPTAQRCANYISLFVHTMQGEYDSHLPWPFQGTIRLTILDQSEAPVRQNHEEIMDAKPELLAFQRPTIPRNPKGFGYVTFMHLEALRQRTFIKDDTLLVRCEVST

T2: TRAF6 trimeric construct T6cc (coiled-coil and MATH domains) (human, UniProt Q9Y4K3 310-504, biotin on the BAP tag)
T2 chain: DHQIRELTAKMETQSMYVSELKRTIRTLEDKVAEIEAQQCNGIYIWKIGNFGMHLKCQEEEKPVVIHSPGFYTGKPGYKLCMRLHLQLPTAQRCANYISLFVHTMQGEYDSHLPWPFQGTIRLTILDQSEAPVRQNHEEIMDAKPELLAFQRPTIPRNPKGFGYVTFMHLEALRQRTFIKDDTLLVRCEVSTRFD

T3: TRAF6 trimeric construct T6cc (coiled-coil and MATH domains) (human, UniProt Q9Y4K3 310-504, biotin on the BAP tag)
T3 construct: human TRAF6, residues 310-504, including the coiled-coil trimerization domain and the MATH domain; Expressed from a pDW363 vector; Concentrations of T6cc are reported as monomer concentrations; also called trimeric TRAF6; biotinylated TRAF6 homotrimers; source: E. coli BL21(DE3), co-expressed with BirA, purified (Ni-NTA, gel filtration); not shown: BAP tag, N-terminal, kept
T3 sequence (looked up): T2 chain

B1: TRAF6 monomeric MATH domain construct T6m (domain or fragment)
chain: T1 sequence (Q9Y4K3 350-501)
B2: TRAF6 trimeric construct T6cc (coiled-coil and MATH domains) (domain or fragment)
chain: T2 chain
modifications: biotin on the BAP tag
B3: CD40* peptide (KQEPQEIDF with 8 flanking CD40 residues on each side) displayed on E. coli via eCPX (peptide)
peptide: PTNKAPHPKQEPQEIDFPDDLPGSNT
notes: 9 residues resolved in PDB 1LB6 plus 8 flanking residues on each side; also called KQEPQEIDF (CD40*); not shown: eCPX (re-engineered OmpX), N-terminal, kept; FLAG, N-terminal, kept

Target: T1, monomeric TRAF6 (T6m), TRAF6 MATH domain
Test: Biolayer interferometry (BLI), SUMO-peptide on tip, TRAF6 monomer in solution
Details: biotinylated SUMO-peptide on streptavidin tip, T6m in solution up to 150 μM; 20 mM Tris pH 8.0, 207 mM NaCl; room temperature; steady-state fit; average of 3 replicate binding curves ± SEM
Excerpt: To further validate the cell‐surface interactions identified in the screen, we measured TRAF6‐peptide binding by biolayer interferometry (BLI), using purified monomeric TRAF6 MATH domain (construct termed T6m) in solution and purified peptides attached to the sensor tip (see Table S1 for construct details). […] The BLI data validate the cell‐surface display results and support the conclusion that top hits from the screen bind with higher affinity than CD40*, which is one of the tightest known TRAF6 peptide binders[19] (Figure 3). Based on these observations, we conclude that despite the screening assay being performed in the environment of the cell surface, and in a multi‐valent context, enrichment sorting returned high‐affinity binders.
Vectors, bacterial cells, and cloning: The expression constructs and cell surface display constructs are detailed in Table S1. The TRAF6 trimeric construct, here termed T6cc, consisted of residues 310–504 of human TRAF6 (including the MATH domain and coiled‐coil trimerization domain), an N‐terminal BAP tag for biotinylation, and a hexahistidine tag for purification. The construct was expressed using a pDW363 vector to ensure biotinylation. A monomeric TRAF6 construct lacking the trimerization domain and BAP tag, here termed T6m, consisted of residues 350–501 of human TRAF6 and a hexahistidine tag. The construct was expressed in a pDW363 vector, although the lack of a BAP tag ensured no biotinylation of this protein. SUMO‐peptide fusion constructs contained a BAP tag, hexahistidine tag, and SUMO tag. The construct was expressed in a pDW363 vector to ensure biotinylation. E. coli strains BL21(DE3), DH5α, and MC1061 were used for protein expression, cloning, and surface display, respectively. For bacterial surface display of TRAF6‐binding peptides, the eCPX vector designed by the Daugherty group[56] was modified at the C‐terminus to append a FLAG sequence, a linker containing a SfiI site, and the CD40* peptide sequence, which included 9 residues resolved in the X‐ray structure of CD40* bound to TRAF6 (PDB ID: 1LB6[19]) plus 8 flanking residues on each side of this core region. The CD40*‐derived sequence used was […].
Protein purification and preparation: T6cc was co‐expressed with the biotin ligase BirA (from the pDW363 vector) in BL21(DE3) E. coli for 5 hours at 37°C. Media was supplemented with 0.05 mM D‐(+)‐biotin. The protein was then purified using Ni^2+‐NTA affinity chromatography followed by gel‐filtration chromatography into a final buffer of 20 mM Tris pH 8.0, 150 mM NaCl, 5% glycerol, 1 mM DTT. Purified protein was concentrated before storing at −80°C in aliquots for later use. Concentrations of T6cc are reported as monomer concentrations. […]

In order of falling Kd:
1. KQEPQEIDF [CD40*, reference compound]  240 ± 23 µM
2. TNWPEENDW  37.2 µM
3. LNLPEESDW  27.5 µM
4. RNVPEESDW  24 ± 3.8 µM

Target: TRAF6
Test: not given
Details: reported affinity for TRAF6, ITC; read-out: Kd by isothermal titration calorimetry; cited from earlier work
Excerpt: High‐affinity TRAF6 binders isolated in this work can serve as lead peptides for inhibitor development. TRAF6 signaling is implicated in inflammation and cardiovascular disease.[12], [13], [18] Targeting TRAF6 MATH is reported to improve insulin sensitivity in obese mice, improve heart function in mouse models of non‐ischemic cardiac failure, reduce atherosclerosis, and inhibit osteoclastogenesis and bone resorption.[14], [15], [16], [17] A RANK peptide attached to a protein transduction sequence to promote cell entry is currently sold commercially as a TRAF6 inhibitor (e.g., Novus Biologicals ...

For KQEPQEIDF [CD40*, reference compound], the Kd is given as 84 µM.

Target: T2, TRAF6 trimeric construct T6cc …
Test: FACS
Details: not given

In order of rising Kd:
1. QNLPTESDW  45.2 nM
2. RNWPTETDW  58.3 nM
3. MNAPVESDW  110 nM
4. TRMPVESDW  169 nM
5. HNIPTETSW  186 nM
6. GKYPEENDW  240 nM
7. RNVPEEIYW  260 nM
8. SPVPEESTW  332 nM
9. PQDPVETFW  374 nM
10. LQLPEENDW  498 nM
11. TYGPVENSW  581 nM

Target: RANK peptide (Homo sapiens)
Test: ITC
Details: cited from earlier work

In the case of TRAF6 (from UniProt Q9Y4K3), the Kd is listed as 78 µM.

Target: T2, TRAF6 trimeric construct T6cc …
Test: FACS; apparent Kd*, cell-surface display
Details: not given

In order of falling Kd:
1. TYGPVENSW  581 nM
2. LQLPEENDW  498 nM
3. PQDPVETFW  374 nM
4. SPVPEESTW  332 nM
5. RNVPEEIYW  260 nM
6. GKYPEENDW  240 nM
7. HNIPTETSW  186 nM
8. TRMPVESDW  169 nM
9. MNAPVESDW  110 nM
10. RNWPTETDW  58.3 nM
11. QNLPTESDW  45.2 nM

Target: biotinylated SUMO-peptide fusion of CD40* (…) (human)
Test: BLI; biotinylated SUMO-peptides immobilised on streptavidin tips, T6m in solution; room temperature; 20 mM Tris pH 8.0, 207 mM NaCl, 1 mM DTT, 1% glycerol, 0.1% BSA, 0.1% Tween-20; steady-state fit, SUMO-only control subtracted
Details: not given

B1 showed a Kd of 240 µM.

Target: biotinylated SUMO-peptide fusion of …
Test: as above
Details: not given

For B1, the Kd was 37 µM and 28 µM and 24 µM.

Target: … peptide displayed on E. coli via eCPX (human)
Test: flow cytometry on cells; single-clone titration: biotinylated T6cc (0 nM to 3 uM, eight concentrations) on peptide-displaying E. coli, 4°C 60 min in PBS + BSA, detected with streptavidin-PE; apparent cell-surface constant Kd*, multivalent, not likely at equilibrium
Details: not given

With B2 the Kd was 84 nM and 46 nM and 31 nM.

Target: T3, TRAF6 trimeric construct T6cc …
Test: as above
Details: one partner purified

B3 showed a Kd of 1200 nM.
